The results in this text go back to paper PMC7072198 (2020).

For the experiment, the target named is EGFR extracellular domain (ECD), wild type (human, UniProt P00533 25-645). The experiment in a line: SPR. For orientation: In SPR one partner is held on a chip, and binding of the other changes the refractive index at the surface.

B1: recombinant Lingzhi-8 (rLZ-8), wild type (natural protein)
chain: MSDTALIFRLAWDVKKLSFDYTPNWGRGNPNNFIDTVTFPKVLTDKAYTYRVAVSGRNLGVKPSYAVESDGSQKVNFLEYNSGYGIADTNTIQVFVVDPDTNNDFIIAQWN
The term Kd denotes the equilibrium constant for the complex coming apart. Read a high Kd as a looser complex. Take B1: the Kd was 4.75 nM.

B2: rLZ-8^(Mut 3) (K16A/S18A/K41A/D45A) (natural protein)
chain: SDTALIFRLAWDVKALAFDYTPNWGRGNPNNFIDTVTFPAVLTAKAYTYRVAVSGRNLGVKPSYAVESDGSQKVNFLEYNSGYGIADTNTIQVFVVDPDTNNDFIIAQWN
Take B2: the dissociation constant Kd turned out to be 9.22 nM. Compared with the last molecule, the Kd is about 1.9-fold higher.
